US20240182563A1 (GENOME, published 2024)

T1: human CNTN4 antigen expressed on the cell membrane of 293FT cells (human, UniProt Q8IWV2 19-1000)
T1 construct: whole, on cells; also called Human CNTN4 transfected cell
T1 sequence (looked up): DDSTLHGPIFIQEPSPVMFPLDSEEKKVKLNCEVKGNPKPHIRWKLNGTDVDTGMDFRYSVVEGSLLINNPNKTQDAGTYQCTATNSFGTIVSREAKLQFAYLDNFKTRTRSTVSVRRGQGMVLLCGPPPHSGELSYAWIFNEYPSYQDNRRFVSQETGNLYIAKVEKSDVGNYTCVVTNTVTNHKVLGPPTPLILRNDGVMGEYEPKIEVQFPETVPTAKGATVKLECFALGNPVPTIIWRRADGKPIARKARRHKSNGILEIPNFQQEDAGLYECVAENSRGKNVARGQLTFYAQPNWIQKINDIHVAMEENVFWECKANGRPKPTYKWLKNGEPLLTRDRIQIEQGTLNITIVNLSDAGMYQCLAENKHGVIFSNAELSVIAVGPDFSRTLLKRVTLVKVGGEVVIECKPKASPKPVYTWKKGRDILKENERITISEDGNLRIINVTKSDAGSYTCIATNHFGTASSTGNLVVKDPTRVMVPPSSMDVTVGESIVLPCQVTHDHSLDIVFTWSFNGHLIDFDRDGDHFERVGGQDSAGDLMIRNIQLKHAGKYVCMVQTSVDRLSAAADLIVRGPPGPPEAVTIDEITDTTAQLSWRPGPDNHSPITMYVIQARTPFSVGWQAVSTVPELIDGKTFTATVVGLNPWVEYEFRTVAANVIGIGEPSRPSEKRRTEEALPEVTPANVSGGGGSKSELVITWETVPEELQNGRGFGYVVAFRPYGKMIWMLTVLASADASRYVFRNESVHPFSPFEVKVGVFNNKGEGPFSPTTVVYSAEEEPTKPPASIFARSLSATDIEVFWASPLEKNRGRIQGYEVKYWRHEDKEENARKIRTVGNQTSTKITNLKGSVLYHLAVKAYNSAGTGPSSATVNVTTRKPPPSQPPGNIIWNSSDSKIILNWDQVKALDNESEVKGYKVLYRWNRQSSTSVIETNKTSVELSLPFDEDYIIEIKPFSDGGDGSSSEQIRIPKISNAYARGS

T2: mouse CNTN4-rabbit Fc (mouse; rabbit, UniProt Q69Z26 19-1000, limits assumed)
T2 construct: not shown: rabbit Fc
T2 sequence (looked up): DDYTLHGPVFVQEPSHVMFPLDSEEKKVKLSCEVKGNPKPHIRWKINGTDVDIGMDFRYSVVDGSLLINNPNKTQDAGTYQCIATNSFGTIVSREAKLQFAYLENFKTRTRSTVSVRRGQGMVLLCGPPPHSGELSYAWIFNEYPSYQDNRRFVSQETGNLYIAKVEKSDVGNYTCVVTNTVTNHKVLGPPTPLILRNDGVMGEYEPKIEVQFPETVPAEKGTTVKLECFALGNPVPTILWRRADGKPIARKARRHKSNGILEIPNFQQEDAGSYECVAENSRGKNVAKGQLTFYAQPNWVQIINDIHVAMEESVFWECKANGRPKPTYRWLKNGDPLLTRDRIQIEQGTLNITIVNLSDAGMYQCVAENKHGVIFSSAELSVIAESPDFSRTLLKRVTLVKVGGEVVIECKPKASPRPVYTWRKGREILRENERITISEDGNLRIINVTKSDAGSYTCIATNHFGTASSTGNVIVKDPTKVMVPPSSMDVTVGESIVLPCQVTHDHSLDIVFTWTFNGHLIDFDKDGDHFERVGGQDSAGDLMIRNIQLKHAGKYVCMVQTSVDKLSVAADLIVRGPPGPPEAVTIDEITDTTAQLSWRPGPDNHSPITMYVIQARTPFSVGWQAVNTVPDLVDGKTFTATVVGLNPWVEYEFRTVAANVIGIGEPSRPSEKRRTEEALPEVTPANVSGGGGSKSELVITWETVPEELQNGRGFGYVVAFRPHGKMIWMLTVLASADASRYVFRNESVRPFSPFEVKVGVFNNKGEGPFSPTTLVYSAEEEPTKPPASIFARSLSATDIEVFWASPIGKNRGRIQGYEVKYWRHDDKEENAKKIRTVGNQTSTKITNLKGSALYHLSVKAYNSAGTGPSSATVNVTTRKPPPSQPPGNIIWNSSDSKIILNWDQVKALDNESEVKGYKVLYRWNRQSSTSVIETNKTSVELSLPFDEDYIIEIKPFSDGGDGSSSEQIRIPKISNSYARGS

T3: human CNTN4-rabbit Fc (human; rabbit, UniProt Q8IWV2 19-1000, limits assumed)
T3 construct: not shown: rabbit Fc
T3 sequence (looked up): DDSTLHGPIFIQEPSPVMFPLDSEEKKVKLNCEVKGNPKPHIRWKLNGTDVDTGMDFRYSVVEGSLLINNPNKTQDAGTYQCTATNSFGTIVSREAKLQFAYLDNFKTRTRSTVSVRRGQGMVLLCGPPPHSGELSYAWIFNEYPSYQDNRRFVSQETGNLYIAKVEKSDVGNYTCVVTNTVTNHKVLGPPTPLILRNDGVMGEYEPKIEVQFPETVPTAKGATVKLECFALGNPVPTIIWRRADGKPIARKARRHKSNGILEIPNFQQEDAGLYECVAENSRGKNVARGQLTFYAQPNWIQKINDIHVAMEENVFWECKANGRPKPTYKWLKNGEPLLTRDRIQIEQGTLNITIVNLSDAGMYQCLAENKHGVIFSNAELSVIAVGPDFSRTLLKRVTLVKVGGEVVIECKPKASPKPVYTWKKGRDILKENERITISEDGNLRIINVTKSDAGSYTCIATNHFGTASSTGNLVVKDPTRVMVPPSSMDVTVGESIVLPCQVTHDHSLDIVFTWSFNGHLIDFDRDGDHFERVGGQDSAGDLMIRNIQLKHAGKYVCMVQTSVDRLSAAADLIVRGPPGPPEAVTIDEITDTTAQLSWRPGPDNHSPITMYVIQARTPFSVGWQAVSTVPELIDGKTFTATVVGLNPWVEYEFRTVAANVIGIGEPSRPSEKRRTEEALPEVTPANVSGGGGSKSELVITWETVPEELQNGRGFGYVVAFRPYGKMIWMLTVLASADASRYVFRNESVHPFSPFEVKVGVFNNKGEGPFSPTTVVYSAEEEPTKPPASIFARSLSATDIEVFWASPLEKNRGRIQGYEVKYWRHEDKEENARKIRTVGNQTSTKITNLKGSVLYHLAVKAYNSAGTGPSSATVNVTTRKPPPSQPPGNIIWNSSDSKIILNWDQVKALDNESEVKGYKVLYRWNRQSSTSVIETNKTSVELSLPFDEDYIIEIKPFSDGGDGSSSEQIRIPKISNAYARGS


Assays:
[1] = biological target: T1, human CNTN4 antigen expressed on the …; assay: FACS, 293FT cells transfected with human CNTN4, 40 ug/mL, anti-hFc-PE
mouse CNTN4-rabbit Fc = biological target: T2, mouse CNTN4-rabbit Fc; assay: ELISA, plate coated with antigen-rabbit Fc, anti-human IgG Fc-HRP
Protocol: (§1) An ELISA tests were performed on a total of 25 scFv-hCks and a total of 27 IgGs for which the expression was confirmed in Example 1.2. An ELISA plate was coated with 200 ng of antigens (human CNTN4-rabbit Fc or mouse CNTN4-rabbit Fc). 200 ng of a negative control (human antigen-rabbit Fc) for a tagging protein was used. For antibody binding, anti-CNTN4 scFv-hCk was serially diluted from a maximum of 1 μM to 0.001 nM by 1/10×each, and anti-CNTN4 IgG was serially diluted from a maximum of 10 nM to 0.00001 nM by 1/10×each, thereby binding to the antigen. Anti-human kappa-HRP or anti-human IgG Fc-HRP was used as the secondary antibody for antibody detection. Color was developed using ABTS, which is a color developing reagent, and the absorbance at 405 nm was measured.

human CNTN4-rabbit Fc = biological target: T3, human CNTN4-rabbit Fc; assay: as above
Protocol: as §1

Shift % [1] [%]	EC50 (mouse CNTN4-rabbit Fc) [nM]	EC50 (human CNTN4-rabbit Fc) [nM]	Binder
84.8	0.01	0.01	anti-CNTN4 IgG A13SF16 (antibody, V domains shown, human IgG4 (S228P)) VH: AVTLDESGGGLQTPGGGLSLVCKASGFTFSSYGMAWVRQAPGKGLEWVAGITSSGSSAGYGPAVKGRATISRDNGQSTVRLQLNNLRAEDTATYYCAKDGYIYSGADSDSIDAWGHGTEVIVSS VL: ALTQPSSVSANLGGTVKITCSGSGGSYGWFQQKSPGSAPVTLIYNNDNRPSDIPSRFSGSKSGSTATLTITGVQAEDEAVYFCGGYDSSTYVDTFGAGTTLTVL
83.8	0.02	0.01	anti-CNTN4 IgG A13SF1 (antibody, V domains shown, human IgG4 (S228P)) VH: AVTLDESGGGLQTPGGGLSLVCKASGFTFSSYGMAWVRQAPGKGLEWVAGITSSGSSAGYGPAVKGRATISRDNGQSTVRLQLNNLRAEDTATYYCAKDGYIYSGADSDSIDAWGHGTEVIVSS VL: ALTQPSSVSANLGGTVKITCSGGGGSYGWFQQKSPGSAPVTLIYNNNNRPSDIPSRFSGSKSGSTATLTITGVQAEDEAVYFCGGYDSSTYVGTFGAGTTLTVL
82.4	0.01	0.01	anti-CNTN4 IgG A13WB25 (antibody, V domains shown, human IgG4 (S228P)) VH: AVTLDESGGGLHTPGGALSLVCKASGFTFSSYGMAWVRQAPGKGLEWVAGITSSGSSAGYGPAVKGRATISRDNGQSTVRLQLNNLRAEDTATYYCAKDGYIYSGADSDSIDAWGHGTEVIVSS VL: ALTQPSSVSANLGGTVEITCSGGGGSYGWYQQKSPGSAPVTVIYYNDKRPSDIPSRFSGSKSGSTGTLTITGVQAEDEAVYFCGGYDGSTYAGIFGAGTTLTVL
80.4	0.01	0.01	anti-CNTN4 IgG A13SF21 (antibody, V domains shown, human IgG4 (S228P)) VH: AVTLDESGGGLHTPGGALSLVCKASGFTFSSYGMAWVRQAPGKGLEWVAGITSSGSSAGYGPAVKGRATISRDNGQSTVRLQLNNLRAEDTATYYCAKDGYIYSGADSDSIDAWGHGTEVIVSS VL: ALTQPSSVSANLGGTVEITCSGSSGSYGWYQQKAPGSAPVTVIYNNNNRPSGIPSRFSGALSGSTATLTITGVQAEDEAVYFCGGYDSSTYVGIFGAGTTLTVL
77.9	0.01	0.01	anti-CNTN4 IgG A35SF38 (antibody, V domains shown, human IgG4 (S228P)) VH: AVTLDESGGGLHTPGGALSLVCKASGFTFSSYGMAWVRQAPGKGLEWVAGITSSGSSAGYGPAVKGRATISRDNGQSTVRLQLNNLRAEDTATYYCAKDGYIYSGADSDSIDAWGHGTEVIVSS VL: ALTQPSSVSANLGGTVKLTCSGSSGSYGWYQQKSPGSAPVTLIYNNNNRPSDIPSRFSGSTSGSTGTLTITGVRAEDEAVYFCGGYDSSTYVAIFGAGTTLTVL
81.6	0.01	0.01	anti-CNTN4 IgG A35SF14 (antibody, V domains shown, human IgG4 (S228P)) VH: AVTLDESGGGLHTPGGALSLVCKASGFTFSSYGMAWVRQAPGKGLEWVAGITSSGSSAGYGPAVKGRATISRDNGQSTVRLQLNNLRAEDTATYYCAKDGYIYSGADSDSIDAWGHGTEVIVSS VL: ALTQPSSVSANPGETIKITCSGGGGSYGWYQQKSPGSAPVTVIYNGNNRPSDIPSRFSGSKSGSTATLTITGVQAEDEAVYFCGGYDSGTYSGIFGAGTTLTVL
